Data: PMC5866929

Assays:
His6-LacI-59 [1] = target: T1, His6-LacI-59 (UniProt P03023 59-360, del1-58); assay: filter binding
His6-LacI-51 = His6-LacI-51 (UniProt P03023 51-360, del1-50); assay: filter binding
His6-LacI-59 [2] = target: T1, His6-LacI-59; assay: EMSA
wild-type LacI = wild-type LacI (UniProt P03023 1-360); assay: EMSA
wild-type LacI, sequence (P03023 whole entry): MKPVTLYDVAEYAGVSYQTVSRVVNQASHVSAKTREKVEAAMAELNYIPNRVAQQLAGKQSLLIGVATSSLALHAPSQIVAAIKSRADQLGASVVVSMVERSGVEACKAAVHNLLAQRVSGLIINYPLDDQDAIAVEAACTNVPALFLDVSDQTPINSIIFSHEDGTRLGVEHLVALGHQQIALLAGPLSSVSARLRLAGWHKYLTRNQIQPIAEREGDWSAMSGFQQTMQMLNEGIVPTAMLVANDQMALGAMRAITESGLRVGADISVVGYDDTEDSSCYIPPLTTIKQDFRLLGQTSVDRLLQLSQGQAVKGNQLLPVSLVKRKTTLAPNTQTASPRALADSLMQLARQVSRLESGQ

T1 sequence (P03023 59-360, stated change not applied): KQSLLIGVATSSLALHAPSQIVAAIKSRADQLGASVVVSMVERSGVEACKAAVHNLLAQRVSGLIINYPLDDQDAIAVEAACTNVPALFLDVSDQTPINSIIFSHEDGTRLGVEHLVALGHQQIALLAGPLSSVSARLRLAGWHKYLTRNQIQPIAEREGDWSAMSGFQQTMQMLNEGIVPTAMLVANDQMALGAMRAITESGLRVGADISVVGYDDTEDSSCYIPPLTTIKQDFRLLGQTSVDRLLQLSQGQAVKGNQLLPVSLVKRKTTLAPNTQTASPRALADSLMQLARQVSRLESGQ
His6-LacI-51, sequence (P03023 51-360, stated change not applied): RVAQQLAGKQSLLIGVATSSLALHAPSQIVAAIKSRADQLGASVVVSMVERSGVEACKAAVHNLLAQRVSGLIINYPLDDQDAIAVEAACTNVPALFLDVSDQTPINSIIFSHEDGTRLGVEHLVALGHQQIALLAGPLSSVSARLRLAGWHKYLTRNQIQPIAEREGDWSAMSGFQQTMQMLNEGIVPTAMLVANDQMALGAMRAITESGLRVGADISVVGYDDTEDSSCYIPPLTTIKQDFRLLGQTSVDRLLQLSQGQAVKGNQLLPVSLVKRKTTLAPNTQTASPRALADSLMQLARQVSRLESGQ

B1: Oscram 40 bp (dsDNA)
DNA 1: GTCATAAGTATCGTGAACTGCTGAGAGTGCTAGCGTTAGT
DNA 2: ACTAACGCTAGCACTCTCAGCAGTTCACGATACTTATGAC
His6-LacI-59 [1]
  binding result: no binding
His6-LacI-51
  apparent K (half saturation): ~5 µM

B2: O1 operator 40 bp (dsDNA)
DNA 1: TGTTGTGTGGAATTGTGAGCGGATAACAATTTCACACAGG
DNA 2: CCTGTGTGAAATTGTTATCCGCTCACAATTCCACACAACA
His6-LacI-59 [2]
  binding result: no binding
wild-type LacI
  binding result: binds
